From patent publication US20240084286A1, “METHODS AND COMPOSITIONS FOR INCREASING THE CONCENTRATION OF CELL FREE DNA” (The Broad Institute, Inc., priority 2021, published 2024)
Entries after “also recorded” stand apart in the source; their conditions may differ.

B1: Sso7d: Small archaeal histone-like DNA-binding protein from Sulfolobus solfataricus, SEQ ID NO: 3 (protein, listed as Saccharolobus solfataricus)
chain: MATVKFKYKGEEKEVDISKIKKVWRVGKMISFTYDEGGGKTGRGAVSEKDAPKELLQMLEKQKK

Key:
[1] = system: DNase I; experiment: Fluorophore-quencher dsDNA nuclease protection fluorescence assay; assay type: biochemical
Description: FIGS. 8A-8B present the protection of dsDNA from nuclease digestion by various dsDNA binders. FIG. 8A presents a fluorescence assay measuring nuclease activity in digestion of dsDNA, which is diminished in presence of dsDNA binders.
FIGS. 28A-28E: FIG. 28A presents an experimental workflow for testing the effect of a DNA binding agent on clearance and degradation of cfDNA. A DNA-binding monoclonal antibody (mAb) is combined with recombinant nucleosome core particles (NCPs) consisting of a human histone octamer complexed with 20 ng of the Widom601 double-stranded DNA (dsDNA) oligonucleotide. […] Levels of Widom601 were quantified via Taqman qPCR. […]
The ability of DBP's—both known proteins and novel ones generated above—to protect dsDNA from nuclease digestion using a previously-established plate-based fluorescence assay was evaluated Known DBP's that can be tested included anti-dsDNA antibodies (some commercially available, e.g. Abcam ab27156),^20,21 members of the protamine family of DBP's, 22 and a family of small DNA-binding archaeal proteins including Sso7d.^23-25 A commercially available dsDNA probe conjugated to a HEX fluorophore and a quencher was incubated with recombinant DNase 1 and DNase 1L3 (the predominant nucleases in circulation). […]

[2] = system: DNase; experiment: Nuclease digestion time-series / electropherogram of dsDNA; assay type: biochemical; details: dsDNA oligonucleotide

| Molecule | protection of dsDNA from nuclease digestion [1] | protection of dsDNA, digestion time-series [2] |
| --- | --- | --- |
| protamine sulfate [reference compound] | protect it from digestion by nucleases | – |
| B1 | protect it from digestion by nucleases; also recorded: protect dsDNA from DNase I digestion | dsDNA protection |
